From patent US20200095296A1, “USE OF PEPTIDES AS BIOMARKERS IN THE DIAGNOSIS, CONFIRMATION AND TREATMENT OF A NEUROLOGICAL DISORDER AND TCR AND/OR HLA IMMUNOPROFILING IN NEURODEGENERATIVE DISEASE” (THE TRUSTEES OF COLUMBIA UNIVERSITY IN THE CITY OF NEW YORK, priority 2017, published 2020)

Legend:
Assay in all cases: competition with radiolabeled peptide, purified HLA
HLA DRB1*03:01 (human) = molecular target: HLA DRB1*03:01 (human)
HLA DRB1*11:01 (human) = molecular target: HLA DRB1*11:01 (human)
HLA DRB3*01:01 (human) = molecular target: HLA DRB3*01:01 (human)
HLA DRB1*04:05 (human) = molecular target: HLA DRB1*04:05 (human)
HLA DRB1*09:01 (human) = molecular target: HLA DRB1*09:01 (human)
HLA DRB1*04:01 (human) = molecular target: HLA DRB1*04:01 (human)

| IC50 (HLA DRB3*01:01 (human)) | IC50 (HLA DRB1*04:05 (human)) | IC50 (HLA DRB1*04:01 (human)) | Substance | other results |
| --- | --- | --- | --- | --- |
| 5.67 µM |  |  | alpha-syn peptide aa116…aa130 | IC50 (HLA DRB1*03:01 (human)): 6.96 µM; IC50 (HLA DRB1*11:01 (human)): 1.57 µM |
|  | 3.6 µM |  | alpha-syn peptide aa116…aa130 phosphorylated at S129 |  |
|  | 1.94 µM |  | alpha-syn peptide aa121…aa135 | IC50 (HLA DRB1*09:01 (human)): 4.6 µM |
| 9.18 µM |  | 9.13 µM | alpha-syn peptide aa121…aa135 phosphorylated at S129 |  |
|  |  | 4.96 µM | alpha-syn peptide aa126…aa140 phosphorylated at S129 |  |
